Measurements taken from patent US20220034883A1 (SYSMEX, published 2022).

Molecular target: T1, His-tagged recombinant N protein of SARS-CoV (SARS-CoV, UniProt P59595 1-422)
T1 construct: mature
Assay: ELISA screening of hybridomas

T1 sequence (P59595 1-422, tags left off): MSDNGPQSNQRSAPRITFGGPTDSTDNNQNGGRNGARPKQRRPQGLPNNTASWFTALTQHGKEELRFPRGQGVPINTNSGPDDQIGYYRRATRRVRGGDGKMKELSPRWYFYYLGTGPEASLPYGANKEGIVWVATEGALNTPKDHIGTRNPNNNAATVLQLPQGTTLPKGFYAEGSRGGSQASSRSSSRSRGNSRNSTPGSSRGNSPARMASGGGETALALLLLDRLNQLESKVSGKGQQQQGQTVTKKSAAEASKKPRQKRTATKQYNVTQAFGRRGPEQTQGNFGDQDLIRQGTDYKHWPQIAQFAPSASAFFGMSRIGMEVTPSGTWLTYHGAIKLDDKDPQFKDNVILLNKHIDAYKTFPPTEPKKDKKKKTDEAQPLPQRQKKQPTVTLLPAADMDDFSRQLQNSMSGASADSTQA

B1: first antibody (monoclonal antibody purified from the culture supernatant of the hybridoma of Clone 1) (antibody, V domains shown)
VH: QVTLKESGPGILQPSQTLSLTCSFSGFSLSTSGTGVSWIRQPSGKGLEWLAHIYWDDDKRYNPSLKSRLTVSKDTSGNQVFLKITSVDTADTATYYCARSNYGYDLDYWGQGTTLTVSS
VL: DIVMTQSQKFMSTSVGDRVSVTCKASQNVGTNVVWYQQKPGQSPKALIYSASYRYSGVPDRFTGSGSGTDFTLTISNVQSEDLAEYFCQQYNNYPLTFGSGTKLEIKR
notes: also called capture antibody
binding result: binds
